The values that follow come from patent publication CN112300278A (UNIV SHANGHAI JIAOTONG, dated 2021).

In the experiment the target is T1, 人EGFR (human epidermal growth factor receptor) (human, UniProt P00533 25-1210).
T1 construct: whole, on cells; The target is on tumour cell lines that naturally express EGFR; No recombinant EGFR was used; also called 表皮生长因子受体; EGFR分子
The experiment can be described thus: flow cytometry on MAD-MB-231 cells highly expressing EGFR; 293F supernatant (~20ug antibody), FITC donkey anti-human IgG.

B1: CET06 (antibody, V domains shown)
VH: QVQLTQSGPGLVKPSETLSQTCTVSGFSLTNYGVHWVRQSPGKGLEWLGVIWSGGNTDYNTPFTSRLTISVDTSKNQVSLKLSSVTSNDTAVYYCARALTYYDYEFAYWGQGTLVTVSA
VL: DISLTQSPVFLSVTPGEKVESECRASQSIGTNIHWYQQKPDQSPKLLIKYASESISGVPSRFSGSGSGTDFTLTINSVESEDIADYYCQQNNNWPTTFGAGTKLELKR
notes: the summary and claim 2 give the reverse; also called 抗人EGFR嵌合抗体CET06
In the case of B1, the binding result is “binds”.
